Measurements as given in patent publication US20220242962A1 (APTEVO RESEARCH AND DEVELOPMENT, published 2022).
Residue numbers refer to the chain shown, from its start. Names may count otherwise. Blank lines part the entries; values can stand above or below the binder they belong to.

Assays:
Full-length Human OX40 [1] = target: T1, Full-length Human OX40 (human, UniProt P43489 29-277); test: cell-based or functional assay
T1 sequence: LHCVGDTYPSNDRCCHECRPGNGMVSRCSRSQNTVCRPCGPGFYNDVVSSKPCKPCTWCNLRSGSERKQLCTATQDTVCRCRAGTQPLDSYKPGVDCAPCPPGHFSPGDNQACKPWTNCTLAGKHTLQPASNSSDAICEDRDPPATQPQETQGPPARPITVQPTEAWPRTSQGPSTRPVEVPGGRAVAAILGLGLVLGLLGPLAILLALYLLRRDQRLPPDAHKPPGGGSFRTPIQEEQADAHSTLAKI

Full-length Human 4-1BB [2] = target: T2, Full-length Human 4-1BB (human, UniProt Q07011 24-255); test: cell-based or functional assay
Full-length Human OX40 [3] = target: T1, Full-length Human OX40; test: flow cytometry, CHO cells expressing human OX40
Method: (§1) FIGS. 12A-12D show the binding of anti-4-1BB x anti-OX40 constructs, with additional humanization in 4-1BB and altered orientations of binding domains, human (12A) or cynomolgus (12C) 4-1BB-expressing Jurkat cells or human (12B) or cynomolgus (12D) OX40-expressing CHOK1SV cells. Serial dilutions of ADAPTIR™ constructs were incubated with transfected cells and subsequently labelled with a fluorescently-conjugated goat-a-human Fc secondary antibody. […] (See Example 19.)
(§2) Binding studies were performed using the flow cytometry-based staining procedures described above.

Human OX40 ECD-AFH = target: T3, Human OX40 ECD-AFH (human); test: SPR, construct captured, monomeric ECD as analyte
T3 construct: ECD'; entry includes the C-terminal tags; also called OXF003; Human OX40 ECD-avi-flag-his
T3 chain: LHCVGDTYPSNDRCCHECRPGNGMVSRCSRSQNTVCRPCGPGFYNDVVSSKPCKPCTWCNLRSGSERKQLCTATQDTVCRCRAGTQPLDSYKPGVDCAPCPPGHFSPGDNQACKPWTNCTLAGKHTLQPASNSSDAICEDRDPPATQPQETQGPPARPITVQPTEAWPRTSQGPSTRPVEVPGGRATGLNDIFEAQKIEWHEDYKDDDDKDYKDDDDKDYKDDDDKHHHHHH
Method: (§3) Mouse anti-human IgG (GE, BR-1008-39) at 25 μg/ml in 10 mM sodium acetate pH 5.0 was immobilized at a density of ˜10,000 response units (RU) onto each flow cell of a CM5 research-grade sensor chip (GE) by standard amine coupling chemistry. Each binding protein at approximately 100 nM in HBS-EP+ with 0.2% BSA buffer was captured in a flow cell with the immobilized anti-human IgG at a flow rate of 10 μL/min for 20 seconds, leaving one flow cell surface unmodified as the reference. Using a single-cycle kinetics mode, five different concentrations of ECD were sequentially injected through each flow cell at 30 μL/min for 300 seconds followed by a 600 second dissociation period. Regeneration was achieved by injection of 3 M MgCl₂ at a flow rate of 30 μL/min for 30 seconds followed by HBS-EP+ with 0.2% BSA buffer stabilization for 1 min.
(§4) Sensorgrams obtained from kinetic SPR measurements were analyzed by the double subtraction method. The signal from the reference flow cell was subtracted from the analyte binding response obtained from flow cells with immobilized or captured ligands. Buffer reference responses were then averaged from multiple injections. The averaged buffer reference responses were then subtracted from analyte binding responses, and the final double-referenced data were analyzed with Biacore T200 Evaluation software (2.0, GE), globally fitting data to derive kinetic parameters. All sensorgrams were fitted using a simple one-to-one binding model.
(§5) Protein was produced by transient expression, purified by ProA chromatography and prep SEC.

Human 4-1BB ECD-AFH = target: T4, Human 4-1BB ECD-AFH (human); test: SPR, construct captured, monomeric ECD as analyte
T4 construct: entry includes the tags; also called FOB003; HUMAN CD137 ECD-AVI-FLAG-HIS
Method: as §3, §4, §5

Full-length Human 4-1BB [4] = target: T2, Full-length Human 4-1BB; test: flow cytometry, Jurkat cells expressing human 4-1BB
Method: as §1, §2

Full-length Cyno 4-1BB = target: T5, Full-length Cyno 4-1BB (cynomolgus monkey, UniProt Q07011 24-255 (human entry)); test: flow cytometry on Jurkat cells transfected with cynomolgus 4-1BB, goat anti-human Fc secondary antibody, MFI (Mean)
T5 construct: on Jurkat or CHO cells; also called FOB006; cynomolgus 4-1BB
T5 chain: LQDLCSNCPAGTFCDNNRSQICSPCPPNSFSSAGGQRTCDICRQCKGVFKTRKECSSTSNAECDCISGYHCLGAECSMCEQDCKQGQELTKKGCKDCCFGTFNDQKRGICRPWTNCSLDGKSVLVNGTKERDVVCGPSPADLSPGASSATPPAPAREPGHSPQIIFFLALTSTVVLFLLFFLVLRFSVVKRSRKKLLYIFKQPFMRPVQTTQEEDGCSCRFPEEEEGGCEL
Method: as §1, §2

Full-length Cyno OX40 = target: T6, Full-length Cyno OX40 (cynomolgus monkey, UniProt P43489 29-277 (human entry)); test: flow cytometry on CHOK1SV cells transfected with cynomolgus OX40, goat anti-human Fc secondary antibody, MFI (Mean)
T6 construct: on CHO-K1SV cells; also called OXF004; cynomolgus OX40
T6 chain: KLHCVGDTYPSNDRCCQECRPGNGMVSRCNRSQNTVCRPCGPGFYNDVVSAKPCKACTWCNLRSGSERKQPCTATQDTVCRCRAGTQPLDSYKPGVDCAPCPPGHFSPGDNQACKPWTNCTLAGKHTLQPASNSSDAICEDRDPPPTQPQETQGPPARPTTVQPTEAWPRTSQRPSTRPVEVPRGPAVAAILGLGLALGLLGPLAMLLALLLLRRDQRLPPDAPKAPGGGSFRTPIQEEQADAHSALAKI
Method: as §1, §2

[5] = target: T7, Recombinant FcRn/b2M protein (human, UniProt P55899 24-297; P61769 21-119, limits assumed); test: SPR pH 6.0, FcRn/b2M immobilized, two-state reaction model
T7 construct: also called hFcRn/b2M; neonatal Fc receptor
Method: Recombinant FcRn/b2M protein was generated via transient transfection of HEK-293 cells with a bi-cistronic vector containing the genes for both FcRn and […]. The complex was purified using IMAC chromatography and subsequently buffer exchanged into IMAC elution buffer after verifying purity of the IMAC eluate by analytical SEC. hFcRn/b2M at 10 μg/ml in 10 mM sodium acetate (pH 4.5) was immobilized on a CM5 chip by direct amine coupling chemistry to a level of ˜600 RU. A reference flow cell was left blank.
Different concentrations of the Fc variant protein (5-80 nM by 2-fold dilutions in pH 6.0 running buffer) including running buffer as blank were injected in randomized order at 30 μL/min for 180 seconds followed by a 120 second dissociation period.
as §4, with “cell” for “cells”, “immobilized” for “immobilized or captured”, “was” for “responses were then averaged from multiple injections. The averaged buffer reference responses were then”, “two-state reaction model, as described in Weirong Wang et al, DrugMetab Dispos.: 39(9): 1469-77 (2011).” for “a simple one-to-one binding model.”

T4 sequence (chain, as listed by the source limits assumed): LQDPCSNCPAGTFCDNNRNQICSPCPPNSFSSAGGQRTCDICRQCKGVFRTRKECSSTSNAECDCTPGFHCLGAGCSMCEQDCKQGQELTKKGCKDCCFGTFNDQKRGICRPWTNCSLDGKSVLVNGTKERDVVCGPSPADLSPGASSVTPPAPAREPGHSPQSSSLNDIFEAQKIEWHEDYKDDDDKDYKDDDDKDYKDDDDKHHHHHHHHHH

B1: FXX01104 (bispecific antibody)
chain: EIVMTQSPATLSLSPGERATLSCRASQSVSSYLNWYQQKPGQAPRLLIYYASRRHTGIPARFSGSGSGTDFTLTISSLQPEDFAVYYCQQGYNLPYTFGQGTKVEIKGGGGSGGGGSGGGGSGGGGSEVQLVQSGAEVKKPGASVKVSCKASGYTFTSYWMNWVRQAPGQGLEWMGNIYPSGGSTNYAQKFQGRVTMTVDTSTSTVYMELSSLRSEDTAVYYCASFSDGYYAYAMDYWGQGTLVTVEPKSSDKTHTCPPCPAPPAAAPSVFLFPPKPKDTLMISRTPEVTCVVVDVSHEDPEVKFNWYVDGVEVHNAKTKPREEQYNSTYRVVSVLTVLHQDWLNGKEYKCAVSNKALPAPIEKTISKAKGQPREPQVYTLPPSRDELTKNQVSLTCLVKGFYPSDIAVEWESNGQPENNYKTTPPVLDSDGSFFLYSKLTVDKSRWQQGNVFSCSVMHEALHNHYTQKSLSLSPGGGGSPSSYVLTQPPSVSVAPGQTARITCGGNNIGSKSVNWFQQKPGQAPVLVVYDDSGRPSGIPERFSGSTSGNTATLTISRVEAGDEADYYCQVWDSSSDHVVFGGGTKLTVLGGGGSGGGGSGGGGSGGGGSQVQLVESGGGVVQPGRSLRLSCAASGFTLSYYGMHWVRQAPGKGLEWVAAISHDGSDKYYADSVKGRFTISRDNSKNTLYLQMNSLRAEDTAVYYCSNDQFDPWGQGTLVTVSSR
notes: ADAPTIR anti-4-1BB (LH) x anti-OX40; also called FX01104
OX40 Reporter Assay EC50 (Full-length Human OX40 [1]): 13 pM
OX40 Reporter Assay Max induction (Full-length Human OX40 [1]): 1.99e+06
4-1BB Reporter Assay EC50 (Full-length Human 4-1BB [2]): 11 pM
4-1BB Reporter Assay Max induction (Full-length Human 4-1BB [2]): 6.11e+06
EC50 (Full-length Human OX40 [3]): 320 pM
max MFI (Full-length Human OX40 [3]): 10400 MFI
Kd (Human OX40 ECD-AFH): 500 pM
koff (Human OX40 ECD-AFH): 0.00032 s⁻¹
kon (Human OX40 ECD-AFH): 710000 M⁻¹ s⁻¹
Kd (Human 4-1BB ECD-AFH): 17000 pM
koff (Human 4-1BB ECD-AFH): 0.0055 s⁻¹
kon (Human 4-1BB ECD-AFH): 320000 M⁻¹ s⁻¹
EC50 (Full-length Human 4-1BB [4]): 310 pM
max MFI (Full-length Human 4-1BB [4]): 4860 MFI
EC50 (read off the curve) (Full-length Cyno 4-1BB): ~300 pM
EC50 (read off the curve) (Full-length Cyno OX40): ~800 pM

B2: FXX01105 (bispecific antibody)
chain: B1 chain with Q498K
notes: ADAPTIR anti-4-1BB (LH) x anti-OX40 with Q17K; also called FX01105
OX40 Reporter Assay EC50 (Full-length Human OX40 [1]): 10 pM
OX40 Reporter Assay Max induction (Full-length Human OX40 [1]): 1.97e+06
4-1BB Reporter Assay EC50 (Full-length Human 4-1BB [2]): 14 pM
4-1BB Reporter Assay Max induction (Full-length Human 4-1BB [2]): 6.58e+06
EC50 (Full-length Human OX40 [3]): 350 pM
max MFI (Full-length Human OX40 [3]): 10500 MFI
Kd (Human OX40 ECD-AFH): 400 pM
koff (Human OX40 ECD-AFH): 0.00027 s⁻¹
kon (Human OX40 ECD-AFH): 710000 M⁻¹ s⁻¹
Kd (Human 4-1BB ECD-AFH): 19000 pM
koff (Human 4-1BB ECD-AFH): 0.0055 s⁻¹
kon (Human 4-1BB ECD-AFH): 290000 M⁻¹ s⁻¹
EC50 (Full-length Human 4-1BB [4]): 330 pM
max MFI (Full-length Human 4-1BB [4]): 4940 MFI
EC50 (read off the curve) (Full-length Cyno 4-1BB): ~300 pM
EC50 (read off the curve) (Full-length Cyno OX40): ~800 pM

B5: K322A Fc (other)
chain: EPKSSDKTHTCPPCPAPEAAGAPSVFLFPPKPKDTLMISRTPEVTCVVVDVSHEDPEVKFNWYVDGVEVHNAKTKPREEQYNSTYRVVSVLTVLHQDWLNGKEYKCAVSNKALPAPIEKTISKAKGQPREPQVYTLPPSRDELTKNQVSLTCLVKGFYPSDIAVEWESNGQPENNYKTTPPVLDSDGSFFLYSKLTVDKSRWQQGNVFSCSVMHEALHNHYTQKSLSLSPG
notes: IgG1 Fc with L234A, L235A, G237A, K322A (EU); the listing labels the entry 'K332A'
Kd [5]: 22000 pM

Other lines, results leading:

OX40 Reporter Assay EC50 (Full-length Human OX40 [1]): 13 pM
OX40 Reporter Assay Max induction (Full-length Human OX40 [1]): 2.07e+06
4-1BB Reporter Assay EC50 (Full-length Human 4-1BB [2]): 13 pM
4-1BB Reporter Assay Max induction (Full-length Human 4-1BB [2]): 6.61e+06
EC50 (Full-length Human OX40 [3]): 320 pM
max MFI (Full-length Human OX40 [3]): 10300 MFI
Kd (Human OX40 ECD-AFH): 800 pM
koff (Human OX40 ECD-AFH): 0.00039 s⁻¹
kon (Human OX40 ECD-AFH): 480000 M⁻¹ s⁻¹
Kd (Human 4-1BB ECD-AFH): 18000 pM
koff (Human 4-1BB ECD-AFH): 0.0055 s⁻¹
kon (Human 4-1BB ECD-AFH): 310000 M⁻¹ s⁻¹
EC50 (Full-length Human 4-1BB [4]): 290 pM
max MFI (Full-length Human 4-1BB [4]): 4770 MFI
EC50 (read off the curve) (Full-length Cyno 4-1BB): ~300 pM
EC50 (read off the curve) (Full-length Cyno OX40): ~800 pM
B3: FXX01108 (bispecific antibody)
chain: B1 chain with Q498K, T688R
notes: ADAPTIR anti-4-1BB (LH) x anti-OX40 with Q17K and T86R

OX40 Reporter Assay EC50 (Full-length Human OX40 [1]): 13 pM
OX40 Reporter Assay Max induction (Full-length Human OX40 [1]): 2.14e+06
4-1BB Reporter Assay EC50 (Full-length Human 4-1BB [2]): 16 pM
4-1BB Reporter Assay Max induction (Full-length Human 4-1BB [2]): 6.85e+06
EC50 (Full-length Human OX40 [3]): 290 pM
max MFI (Full-length Human OX40 [3]): 10300 MFI
Kd (Human OX40 ECD-AFH): 500 pM
koff (Human OX40 ECD-AFH): 0.00029 s⁻¹
kon (Human OX40 ECD-AFH): 630000 M⁻¹ s⁻¹
Kd (Human 4-1BB ECD-AFH): 18000 pM
koff (Human 4-1BB ECD-AFH): 0.0056 s⁻¹
kon (Human 4-1BB ECD-AFH): 310000 M⁻¹ s⁻¹
EC50 (Full-length Human 4-1BB [4]): 260 pM
max MFI (Full-length Human 4-1BB [4]): 4700 MFI
EC50 (read off the curve) (Full-length Cyno 4-1BB): ~300 pM
EC50 (read off the curve) (Full-length Cyno OX40): ~800 pM
B4: FXX01107 (bispecific antibody)
chain: B1 chain with T688R
notes: ADAPTIR anti-4-1BB (LH) x anti-OX40 with T86R; also called FX01107

Kd [5]: 33000 pM
B6: Null2 Fc (other, human, UniProt P01857-1 99-329, looked up, name in EU numbering)
chain: B5 chain with S5C, E103A, K105A
notes: domain: Fc region
